Test results published in patent US20250320281A1.

B1: PGT-126 (5141_B17) (antibody, V domains shown)
VH: QPQLQESGPGLVEASETLSLTCTVSGDSTAACDYFWGWVRQPPGKGLEWIGGLSHCAGYYNTGWTYHNPSLKSRLTISLDTPKNQVFLKLNSVTAADTAIYYCARFDGEVLVYHDWPKPAWVDLWGRGTLVTVSS
VL: QSALTQPPSASGSPGQSISISCTGTSNRFVSWYQQHPGKAPKLVIYGVNKRPSGVPDRFSGSKSGNTASLTVSGLQTDDEAVYYCSSLVGNWDVIFGGGTKLTVL
B2: PGT-125 (5123_A06) (antibody, V domains shown)
VH: QSQLQESGPRLVEASETLSLTCNVSGESTGACTYFWGWVRQAPGKGLEWIGSLSHCQSFWGSGWTFHNPSLKSRLTISLDTPKNQVFLKLTSLTAADTATYYCARFDGEVLVYNHWPKPAWVDLWGRGIPVTVSS
VL: QSALTQPPSASGSPGQSITISCNGTATNFVSWYQQFPDKAPKLIIFGVDKRPPGVPDRFSGSRSGTTASLTVSRLQTDDEAVYYCGSLVGNWDVIFGGGTTLTVL
B3: PGT-123 (4858_P08) (antibody, V domains shown)
VH: QLHLQESGPGLVKPPETLSLTCSVSGASINDAYWSWIRQSPGKRPEWVGYVHHSGDTNYNPSLKRRVTFSLDTAKNEVSLKLVDLTAADSATYFCARALHGKRIYGIVALGELFTYFYMDVWGKGTAVTVSS
VL: SSMSVSPGETAKISCGKESIGSRAVQWYQQKPGQPPSLIIYNNQDRPAGVPERFSASPDFRPGTTATLTITNVDAEDEADYYCHIYDARGGTNWVFDRGTTLTVL

Tests used:
Experiment in all cases: cell-based or functional assay
[1] = target: HIV-1 Env of isolate MGRM-A-007 (pseudovirus) (HIV-1)
[2] = target: HIV-1 Env of isolate 94UG103 (pseudovirus) (HIV-1)
[3] = target: HIV-1 Env of isolate MGRM-A-005 (pseudovirus) (HIV-1)
[4] = target: HIV-1 Env of isolate 92UG031 (pseudovirus) (HIV-1)
[5] = target: HIV-1 Env of isolate 92WR009 (pseudovirus) (HIV-1)
[6] = target: HIV-1 Env of isolate MGRM-A-004 (pseudovirus) (HIV-1)
[7] = target: HIV-1 Env of isolate MGRM-A-002 (pseudovirus) (HIV-1)
[8] = target: HIV-1 Env of isolate 93UG077 (pseudovirus) (HIV-1)
[9] = target: HIV-1 Env of isolate 92RW008 (pseudovirus) (HIV-1)
[10] = target: HIV-1 Env of isolate MGRM-A-001 (pseudovirus) (HIV-1)
[11] = target: HIV-1 Env of isolate MGRM-A-009 (pseudovirus) (HIV-1)
[12] = target: HIV-1 Env of isolate 92WR026 (pseudovirus) (HIV-1)
[13] = target: HIV-1 Env of isolate MGRM-A-011 (pseudovirus) (HIV-1)
[14] = target: HIV-1 Env of isolate MGRM-A-014 (pseudovirus) (HIV-1)
[15] = target: HIV-1 Env of isolate CMU02 (pseudovirus) (HIV-1)
[16] = target: HIV-1 Env of isolate 94KE105 (pseudovirus) (HIV-1)
[17] = target: HIV-1 Env of isolate 92UG037 (pseudovirus) (HIV-1)
[18] = target: HIV-1 Env of isolate MGRM-A-008 (pseudovirus) (HIV-1)
[19] = target: HIV-1 Env of isolate VLGCA1 (pseudovirus) (HIV-1)
[20] = target: HIV-1 Env of isolate 92WR020 (pseudovirus) (HIV-1)
[21] = target: HIV-1 Env of isolate 92TH021 (pseudovirus) (HIV-1)
[22] = target: HIV-1 Env of isolate 93WR029 (pseudovirus) (HIV-1)
[23] = target: HIV-1 Env of isolate MGRM-A-012 (pseudovirus) (HIV-1)
[24] = target: HIV-1 Env of isolate MGRM-AE-001 (pseudovirus) (HIV-1)
[25] = target: HIV-1 Env of isolate MGRM-AE-002 (pseudovirus) (HIV-1)
[26] = target: HIV-1 Env of isolate MGRM-A-013 (pseudovirus) (HIV-1)
[27] = target: HIV-1 Env of isolate MGRM-A-006 (pseudovirus) (HIV-1)
[28] = target: HIV-1 Env of isolate 92WR021 (pseudovirus) (HIV-1)
[29] = target: HIV-1 Env of isolate MGRM-A-010 (pseudovirus) (HIV-1)
[30] = target: HIV-1 Env of isolate MGRM-A-003 (pseudovirus) (HIV-1)
[31] = target: HIV-1 Env of isolate 92WR024 (pseudovirus) (HIV-1)
[32] = target: HIV-1 Env of isolate MGRM-AE-003 (pseudovirus) (HIV-1)

| Binder | IC50 (µg/mL), pseudovirus neutralization [1] [µg/mL] | IC50 (µg/mL), pseudovirus neutralization [2] [µg/mL] | IC50 (µg/mL), pseudovirus neutralization [3] [µg/mL] | IC50 (µg/mL), pseudovirus neutralization [4] [µg/mL] | IC50 (µg/mL), pseudovirus neutralization [5] [µg/mL] | IC50 (µg/mL), pseudovirus neutralization [6] [µg/mL] | IC50 (µg/mL), pseudovirus neutralization [7] [µg/mL] | IC50 (µg/mL), pseudovirus neutralization [8] [µg/mL] | IC50 (µg/mL), pseudovirus neutralization [9] [µg/mL] | IC50 (µg/mL), pseudovirus neutralization [10] [µg/mL] | IC50 (µg/mL), pseudovirus neutralization [11] [µg/mL] | IC50 (µg/mL), pseudovirus neutralization [12] [µg/mL] | IC50 (µg/mL), pseudovirus neutralization [13] [µg/mL] | IC50 (µg/mL), pseudovirus neutralization [14] [µg/mL] | IC50 (µg/mL), pseudovirus neutralization [15] [µg/mL] | IC50 (µg/mL), pseudovirus neutralization [16] [µg/mL] | IC50 (µg/mL), pseudovirus neutralization [17] [µg/mL] | IC50 (µg/mL), pseudovirus neutralization [18] [µg/mL] | IC50 (µg/mL), pseudovirus neutralization [19] [µg/mL] | IC50 (µg/mL), pseudovirus neutralization [20] [µg/mL] | further results |
| --- | --- | --- | --- | --- | --- | --- | --- | --- | --- | --- | --- | --- | --- | --- | --- | --- | --- | --- | --- | --- | --- |
| B1 | > 50 | 0.008 | > 50 | > 50 | > 50 | > 50 | 0.015 | 0.02 | 0.008 | > 50 | 0.004 | 0.008 | > 50 | 0.01 | > 50 | 0.006 | 0.011 | > 50 | > 50 | 0.006 | IC50 (µg/mL), pseudovirus neutralization [21]: 0.197 µg/mL; IC50 (µg/mL), pseudovirus neutralization [22]: > 50 µg/mL; IC50 (µg/mL), pseudovirus neutralization [23]: 0.097 µg/mL; IC50 (µg/mL), pseudovirus neutralization [24]: 9.68 µg/mL; IC50 (µg/mL), pseudovirus neutralization [25]: > 50 µg/mL; IC50 (µg/mL), pseudovirus neutralization [26]: 0.006 µg/mL; IC50 (µg/mL), pseudovirus neutralization [27]: > 50 µg/mL; IC50 (µg/mL), pseudovirus neutralization [28]: 0.006 µg/mL; IC50 (µg/mL), pseudovirus neutralization [29]: 0.002 µg/mL; IC50 (µg/mL), pseudovirus neutralization [30]: > 50 µg/mL; IC50 (µg/mL), pseudovirus neutralization [31]: 42 µg/mL; IC50 (µg/mL), pseudovirus neutralization [32]: > 50 µg/mL |
| B2 | > 50 | 0.008 | > 50 | > 50 | 0.144 | > 50 | 0.013 | 0.012 | 0.004 | 12.4 | 0.009 | 0.007 | > 50 | 13.9 | > 50 | 0.004 | 0.005 | > 50 | 0.078 | 0.004 | IC50 (µg/mL), pseudovirus neutralization [21]: 0.006 µg/mL; IC50 (µg/mL), pseudovirus neutralization [22]: > 50 µg/mL; IC50 (µg/mL), pseudovirus neutralization [23]: 0.177 µg/mL; IC50 (µg/mL), pseudovirus neutralization [24]: 2.95 µg/mL; IC50 (µg/mL), pseudovirus neutralization [25]: > 50 µg/mL; IC50 (µg/mL), pseudovirus neutralization [26]: 0.014 µg/mL; IC50 (µg/mL), pseudovirus neutralization [27]: > 50 µg/mL; IC50 (µg/mL), pseudovirus neutralization [28]: 0.005 µg/mL; IC50 (µg/mL), pseudovirus neutralization [29]: 0.004 µg/mL; IC50 (µg/mL), pseudovirus neutralization [30]: > 50 µg/mL; IC50 (µg/mL), pseudovirus neutralization [31]: 35.5 µg/mL; IC50 (µg/mL), pseudovirus neutralization [32]: 0.092 µg/mL |
| B3 | > 50 | 0.678 | > 50 | > 50 | 15.7 | > 50 | 0.011 | 0.028 | 0.003 | > 50 | 0.004 | 0.012 | > 50 | 0.003 | > 50 | 0.024 | 0.023 | > 50 | > 50 | 0.002 | IC50 (µg/mL), pseudovirus neutralization [21]: > 50 µg/mL; IC50 (µg/mL), pseudovirus neutralization [22]: > 50 µg/mL; IC50 (µg/mL), pseudovirus neutralization [23]: 0.192 µg/mL; IC50 (µg/mL), pseudovirus neutralization [24]: > 50 µg/mL; IC50 (µg/mL), pseudovirus neutralization [25]: > 50 µg/mL; IC50 (µg/mL), pseudovirus neutralization [26]: 0.565 µg/mL; IC50 (µg/mL), pseudovirus neutralization [27]: > 50 µg/mL; IC50 (µg/mL), pseudovirus neutralization [28]: 0.005 µg/mL; IC50 (µg/mL), pseudovirus neutralization [29]: 0.705 µg/mL; IC50 (µg/mL), pseudovirus neutralization [30]: 0.495 µg/mL; IC50 (µg/mL), pseudovirus neutralization [31]: > 50 µg/mL; IC50 (µg/mL), pseudovirus neutralization [32]: > 50 µg/mL |
